Source: the DeepSol protein solubility set

Experiment: soluble on expression in E. coli; label from the status in PepcDB or PDB records

Row | Sequence | soluble on expression in E. coli
1 | MPDLSAAEFTLLQGAHLFAPEDRGICDVLLANGKIIAVGAGIPGDIVPDCTVINLSGRMLCPGFIDQHVHLIGGGGEAGPTTRTPEVSLSRLTEAGITTVVGLLGTDSVSRHPASLLAKTRALNEEGITAWMLTGAYHVPSPTITGSVEKDVALIDRVIGVKCAVSDHRSAAPSGNQLASMAAESRVGGLLGGKPGVSVFHMGSSKKGLQPLYDILENSDVPIGKLLPTHVNRSESLFEQALAFALKGGVIDITTSIPDPVAPAEGIARAVKAGVPLSRVTLSSDGNGSQPLFDAAGNLTGIGVAGFESLLETLQTLVNHYGFSLANALRPLTTSVAAFLSLDGKGEIRPGNDADLLVFSADLRIEQVYARGKRMVNEGKACVKGTFEPA | not soluble
2 | MSLEALMNVQFFDHAHHKLKIRGLQSPVDVLTFEGREQLSTPFRYDIQFTSSDKAIAPESVLMQDGAFSLTAPPVQGMPVQTALRTLHGVITGFKHLSSSQDEARYEVRLEPRMALLTRSRQNAIYQNQTVPQIVEKILRERHQMRGQDFVFNLKSEYPAREQVMQYGEDDLTFVSRLLSEVGIWFRFATDARLKIEVIEFYDDQSGYERGLTLPLRHPSGLFDGETEAVWGLNTAYSVVEKSVSTRDYNYREATAEMTTGQHDATGGDNTTYGEAYHYADNFLQQGDKEAAESGAFYARIRHERYLNEQAILKGQSTSSLLMPGLEIKVQGDDAPAVFRKGVLITGVTTSAARDRSYELTFTAIPYSERYGYRPALIPRPVMAGTLPARVTSTVKNDIYAHIDKDGRYRVNLDFDRDTWKPGYESLWVRQSRPYAGDTYGLHLPLLAGTEVSIAFEEGNPDRPYIAGVKHDSAHTDHVTIQNYKRNVLRTPANNKIRLDDERGKEHIKVSTEYGGKSQLNLGHLVDAGKEQRGEGFELRTDLWGAVRAKKGIFISADAQDKAQGQVLEMQPALARLSAALVTMESLAASAQQAQALAADVSRQQTLLQQKIEQLQQEVLLGSAPKGVALVSGEDMQLSASDNLTLTAGKQLDIGVQKDFTLAAGKQLSLYSRAGAKLFSSHNDIDIQAQGGNLTTWSTQDTYISSGKKLVVTAQDELTLICGGGYIKIKSGNVEIGGPGKLLVKNAGIKKAGSGSMQGVMKSFEPESFDENFIISNPASGKPIANQKYEIHMPDGSVIAGITDAMGYSSLVASKASDDLKIILKKEGHHHHHH | soluble
3 | MSLPVFSFEEPTGPHRVGTKLYHWVDHQRNEPYSKNPNDRRELMVQIWYPAAEKSKGDPEPYIRNINELSKGLEKTLSIPAFAFSHMELVKSHSFMDLQLSDSENHYPILLFSHGFNGFRNQNTFQVEELASQGYIVLSIDHTFDAAATVFPGGRTAYVQPINLTDEGDSHIKLWEEDVSFVLNQIEKLNENDETGFFTGRLDTSRIGMFGHSYGGATAAQILAKDSRVKAAINMDGTLYGEILPESGIGKPFLLMNAEEPDEADPFEVRERYGRGLAGGGMSMVIPHTDHTSFTDLHLFSPLLQSPGENPKEVHRIINEFSLAFFDQYVKQKDDGSTLKRLITQYPEVNFKINREGHHHHHH | soluble
4 | MGSDKIHHHHHHMWFKNLMTYRLTKPLDWDLAQLQTQLEDCQFHPCGTQDQSKFGWSAPLRGSDLLYFSVGKQILLIAKKEEKILPANVVKRELDDRIESLEQKENRKLKKVEKQTLKDDVVMNLLPRAFSKNQHTALWIDTENNLIHIDAASSKRAEDALALLRKSLGSLPVVPLAFANEPSTILTNWILQDNLPHWLLALEEAELRGSQEDSVIRCKKQPLENEEILALLQDGKKVVSKLALEWEDTLTFVFNEDCTIKRLKFADTVREKNDDILKEDFAQRFDADFVLMTGILAKLTENLLDEFGGEKARL | not soluble
5 | MDPAEVEFLAEKEMVKIIPNFSLDKIYLIGGDLGPFNPGLPVEVPVWLALNLKQRQKCRIVPPEWMDTDKLEDIREQERKLDTFTPIPNPYYMELTKLLLNHAADNIPKADEIRTLVKDIWDTRMAKLRLSADSFISQQEAHAQLDNLTLMEINTTRSFLLDSLNYMYKLRSNLQPGRSKDY | not soluble
6 | MSLNPNYSIFAELYDELFDPNMYLSWNGFVQDNSRNNRILDLAGGSGKLAVLLTKSGYQVSILDLSSQMLSLAKQRAENNNFSFDLFQANMAQNWHLNKRFPLISCFADSLNYLSNIGETKRTFFEVFNHLEKNGKFLFDVITPYQVNVVYRNYMYNNDDDPEKIFMWTSFPGDIKNSVDHDLKFFVYQEGIDAFKMVREVHHEQTYPPEKYLSLLKEIGFRNIHLTSDFGRGKITRDTTRAFFVAEKEGHHHHHH | not soluble
7 | MKSKLICIIMVIAFQAHFTMTVKADSVGEEKLQNNTQAKKTPADLKALPDSCEAKDFYKNFKILDMTKDKLGVTHYTLALSSGGYLTDNDEIKVHVTPDNKITFINGDLQQGQLRITNQIKITEKNAIEKAFEAIGQSEAHVKSYVGNPVKEKEIILNSRTKRLVYNIKLIFAEPEVASWIVQVDVETGAILKKQNMLSEVERADTHKDFQALGKGANRLLQRPLHVMKINDLFYLVDRTHKGLIRTFDLKHNTDTSFGKVVSNKTNMFTDPEFSSAVDAHFYASEVYEYYKNVHQLESLDGKGGEIDSFVHYGLNCNNAFWDGQEILYGDGDKKNFKPFSCAKTIVGHELTHAVIQYSAGLEYEGQSGALNESFADVFGYFIAPNHWLIGEDVCVRGSRDGRIRSIKDPDKYNQAAHMKDYESLPLTEEGDWGGVHYNSGIPNKAAYNTITKLGKEKTEQLYFRALKYYLTKKSQFTDAKKALQQAAKDLYGEDASKKVAEAWEAVGVN | not soluble
8 | MDERRFFRDVCAEWMEQYRLTVRESTLEKTQRIINIHVLPAFGDMVINNITPNVCQKVVNKWFLEAKSYKKWLNYASMIFDYALRAEYVGRNPCTLVTMPRVQEQAGEKLEHHHHHH | not soluble
9 | MGSDKIHHHHHHMSNLSLDFSDNTFQPLAARMRPENLAQYIGQQHLLAAGKPLPRAIEAGHLHSMILWGPPGTGKTTLAEVIARYASADVERISAVTSGVKEIREAIERARQNRNAGRRTILFVDEVHRFNKSQQDAFLPHIEDGTITFIGATTENPSFELNSALLSRARVYLLKSLTTDDIEQVLDQAMQDKTRGYGDQDIVLPDETRRAIAELVNGDARRALNTLEMMADMAEADDSGKRVLLPALLTEIAGERSARFDNKGDRFYDLISALHKSVRGSAPDAALYWYARIITAGGDPLYVARRCLAIASEDVGNADPRAMQVAIAAWDCFTRVGPAEGERAIAQAIVYLACAPKSNAVYTAFKAALADARERPDYDVPVHLRNAPTKLMKEMGYGQEYRYAHDEPNAYAAGEVYFPPEIAQTRYYHPTNRGLEGKIGEKLAWLAEQDQNSPTKRYR | not soluble
10 | MGSDKIHHHHHHMSLLINLSFILTKPTGTTTYAFNLLPHLKPLQPTLLTSQYFPNYNSYQTPVNQTSEQGIKGHLRRLRWTQFKLPKIYNNLKSSLLFSPLPEAPLYTNCRFVITSFDMIPLRFPKRFSPLIPYHRYYTPQVLKQAQHIICISQTTAEDITNFYGIPANKITPILLAYDRTHFRPLNLATRNYFLYIGRQEPYKNIQRLLAAFAALPNHKDYELWLVGPSDLRYTPTLKTQVEELSITNQVKFLDYVPYSELPKIINEAIALVFPSLWEGFGLPVLEAMACGTPVITSNLSSLPEVAGDAAILIDPYNTVEITEAMQVIATNSALRSHLSSQGIIHCQQFSWEKTAKATAEVLSRYM | not soluble
11 | MRRSLVVAVMAIMPMVGLANQNSRPDIQVNVPPEVFSTRGQSSQPCIQCCVYQDQNYSEGAVIKVEGVVLQCQRDEKTISTNPLVWRRVKPLEHHHHHH | not soluble
12 | MGFFNFIKTVGEKLGIGDSEPTEKDFKTAFDNFQLGTEKVNIQVENGKVVLSGEVPDRETLEKALLVVGNAQGISSVDIGQLKVADTACMKASRFYEVKSGDNLWKIAEEVYGKGQGDKNTFIFEANKPMLKSPDKIYPGQVLRIPEIDRA | not soluble
13 | SASFDGPKFKMTDGSYVQTKTIDVGSSTDISPYLSLIREDSILNGNRAVIFDVYWDVGFPETETKTKTSGWSLSSVKLSTRNLCLFLRLPKPFHDNLKDLYRFFASKFVTFVGVQIEEDLDLLRENHGLVIRNAINVGKLAAEARGTLVLEFLGTRELAHRVLWSDLGQLDSIEAKWEKAGPEEQLEAAAIEGWLIVNVWDQLSDE | soluble
14 | GSPEFMALTQSLKLSNGVMMPVLGFGMWKLQDGNEAETATMWAIKSGYRHIDTAAIYKNEESAGRAIASCGVPREELFVTTKLWNSDQGYESTLSAFEKSIKKLGLEYVDLYLIHWPGKDKFIDTWKAFEKLYADKKVRAIGVSNFHEHHIEELLKHCKVAPMVNQIELHPLLNQKALCEYCKSKNIAVTAWSPLGQGHLVEDARLKAIGGKYGKTAAQVMLRWEIQAGVITIPKSGNEARIKENGNIFDFELTAEDIQVIDGMNAGHRYGPDPEVFMNDF | soluble
15 | MYSGFTREKSDLRTEDVEITKEPFTLLIMGIEDYATDGQNGRTDSLMFATVNPKTQKISLMSIPRDSRVPIVGKNKEDKINAAHAYGGEEMAIKTVEGFLKVPVDHYVKIDFQGFKGIVDAVGGVTVDVPFDFWERSDVDYYKKIQFKQGQQELNGEEALAYVRMRKQDPNGDYGRAARQRQLLAAVAQKLNSTSTVFKIKDLTSVVGKYIKTDIPISDGLALYKKLSGFDPSTIQTLKLEGEDKKIGGIYYFLPDPNGVEAVRNEIKKELGEKVTTQENSTTKTESTPSSNSNSNEKAKKETNRNQNKTPTDPPPSTNAHAEWIMRNQQLEHHHHHH | soluble
16 | MTSRPSSDQTWQPIDGRVALIAPASAIATDVLEATLRQLEVHGVDYHLGRHVEARYRYLAGTVEQRLEDLHNAFDMPDITAVWCLRGGYGCGQLLPGLDWGRLQAASPRPLIGFSDISVLLSAFHRHGLPAIHGPVATGLGLSPLSAPREQQERLASLASVSRLLAGIDHELPVQHLGGHKQRVEGALIGGNLTALACMAGTLGGLHAPAGSILVLEDVGEPYYRLERSLWQLLESIDARQLGAICLGSFTDCPRKEVAHSLERIFGEYAAAIEVPLYHHLPSGHGAQNRAWPYGKTAVLEGNRLRW | soluble
17 | MGSDKIHHHHHHMAADVATPFQQLRINKFAAIQNGQFVASFKVPRSAGFTLIIPNADDFLTNNISIMTPDNKVLDASNFAAFGVEFSQFSPDNELTAFLATGNSWIIKFSDVIPGSYTVRGVTSSAKSHLPIRVLVKNSDIALHLVIGSPSNIPMVNHHLPISVLMVDGDLPYINGNVSFEIFKDGEALQHANIRDDGVYPDYQANDGTYSTLFMPLSAGVYDVLINISGRNKNGDKFEAQIFRSFKVLQDNVYLTGKHSEVLIDEDGDGYNDALMLEFETGGVFQEEGVYYITVNLETNDGRTLVAHQRIESPEKKFYVKFDGKYLGTLDYSGAFKFFSIVIEYNDSIIHLNQSFGSTSYYDHDSWERDDLLYLGNVTFEPIYSADGRFIEMIDVSFEVDTLPTAARFGYSATITTVGNEHVGVYGNPDIELKKGINRITFSIPAADFAKLQSNTALKISQLTMYPLIKGGNVISKRNVATSELYSCWDFRGCSTAENAIPVAVDDEVTSTGKAMYIHVAQNDYDGDLLKVSDQKKDNFGTLTQWSIQFD | not soluble
18 | MCAHRPATAPDFLLSRSHGSIRTQGAVETFSDPGKAVEALRSGRVELVVGALAFRRDHACALTVPRSVIREEGPLEPHAYYRQGPGSIVNAQVEKLVPSLDKHHARVEAAINTIKSTSLKKVVLARAVDMTFSPAVDPRLIAARLIDLSRNRDGFIADLTPAGEDFAGAM | not soluble
19 | MGSDKIHHHHHHMLCQFSFKNFKSYKETTTFDFQATSIPEFSESLLKSEKADALLPVGVIYGPNGGGKTNLLLALSCLISTVVKPIYELEKAREKIIIQQKISAAPFYFNEISRKMPTEFEVYFRQGKNEYRYNLSICGDDIVEESLYWKAIGGKRTGMVFDREGAEITLGASINKASINRSVNPKMPYLSFLAINYDIPVIVEVQKWFESCIVKNYANPIADRQIMFSDDESYRKRIVRALNDVDIDVSGYRYDEENHELYTQRMIEGKIYELSFNDESDGTKKMIAALPVILLALQEGRLVIIDELDAKLHPKLLRYVISLFKNKNVNKKGAQLLFTSHDMTTMKNTVFRRDEIWFAAENERHESEIYSLYEIRRENNERVNSTAAYDKQYLEGRYGADPYLTNMLAGGEWL | not soluble
